Source: patent publication US11771829B2, “Systems and methods for liquid injection” (Massachusetts Institute of Technology, priority 2019, dated 2023)

Experiments:
[1] = In vivo swine pharmacokinetics after L-SOMA, subcutaneous or endoscopic gavage dosing
Experimental: In vivo swine experiments were performed in which L-SOMA devices loaded with either an inactivated GLP-1 receptor agonist or fast acting insulin were prepared. L-SOMA dosing experiments were compared to subcutaneous dosing experiments and experiments where swine were dosed with the liquid formulation into the stomach lumen. Using an endoscope, L-SOMA devices were placed into the stomachs of swine and allowed to independently actuate. After 2 hours the devices were removed from the animal. Time 0 corresponds to the time at which the device was placed in the stomach and not the time that the device actuated. The swine dosed were partially fasted but contained a layer of gastric fluid and food approximately the same height as the L-SOMA capsule.
(§1) L-SOMA dosings were compared to subcutaneous or intramuscular dosings as positive controls. Using an endoscope, we placed L-SOMA devices into the stomachs of swine and allowed them to independently actuate. After 2 hours the devices were removed from the animal.
Insulin and GLP-1 generally have limited ability to traverse the stomach lining for systemic uptake when administered without a permeation enhancer or physical permeation enhancing device.

blood glucose = experiment: Blood glucose in swine after dosing; assay type: in vivo
Experimental: as §1

heart rate = conditions: swine; 0.24 mg; both intramuscular injection and L-SOMA groups
Experimental: as §1

swine stomach = experiment: Histology of swine stomach after L-SOMA injection; assay type: in vivo; conditions: swine stomach after L-SOMA epinephrine injection
Experimental: as §1

[2] = Liquid formulation stability, two weeks at 40° C. and 75% relative humidity; assay type: physicochemical
Experimental: FIGS. 53A-53B show liquid formulation stability, according to one set of embodiments. Human Insulin (HI) and Semaglutide (Sema) formulations were placed inside of either an L-SOMA or a glass vial apparatus and were subjected to a 40° C. and 75% relative humidity environment for two weeks. (a) Purity loss and (b) high molecular weight protein (HMWP) formation were then measured. (Error=SD, n=3 device replicates, **P<0.01, ***P<0.001).
Additionally, the purity loss for the liquid formulation was higher than the purity loss for the solid formulation we previously reported using in the SOMA system. Optimization of the L-SOMA storage system and loaded liquid formulation will be required to ensure long term stability of the filled drug.

adalimumab
uptake after endoscopic gavage (negative control) ([1]; in vivo): negligible uptake
drug in blood plasma after dosing ([1]; in vivo, sc): at least 3 days

CNC[C@H](O)c1ccc(O)c(O)c1 [epinephrine]
uptake after endoscopic gavage (negative control) ([1]; in vivo): negligible uptake
plasma exposure of drug observed after administration ([1]; swine, in vivo): ≤ 15 min
blood glucose change (blood glucose; 0.24 mg, both intramuscular injection and L-SOMA groups): abrupt rise
heart rate change (heart rate): abrupt rise
H&E staining: necrosis or adverse effects elicited by the drug (swine stomach): no evidence of necrosis or adverse effects

recombinant human insulin: recombinant human insulin, 1 mg liquid dose
bioavailability, range ([1]; swine, L-SOMA dosed, 1 mg, two hour sampling period, n=8): 25%-81%
bioavailability, range ([1]; swine, dosed subcutaneously, insulin, n=3): 50.8%-66.2%
hypoglycemic onset (blood glucose; insulin 1 mg, L-SOMA (FIG. 47B) and subcutaneous (FIG. 47F)): immediate hypoglycemic onset
high molecular weight protein formation, L-SOMA system versus glass vial system [2]: greater
purity loss, L-SOMA system versus glass vial system [2]: greater

semaglutide
high molecular weight protein formation, L-SOMA system versus glass vial system [2]: greater
purity loss, L-SOMA system versus glass vial system [2]: greater
